Laboratory results: a protein production outcome set (Wang et al. 2014)

Test: label from the status in PepcDB records

Row | Sequence | protein production
1 | MMRKLLTALPDGGVSALSGLQDAQTVGRISVAPSGRKFLLLTIVLFLITFATHAQVVDTWRFDNPQQQEKALSIAGQLRCPQCQNQNLLESNAPVAVSMRHQVYSMVAEGKSEAEITAWMTDRYGDFVRYNPPLNEQTLLLWALPCLLLLLVGVVVWRVRKRQHAEEGEQ | failed
2 | MTGEVPGAAAQVFARAEALRDLGRPAEALGLVRQGLASDPHDVTLLVLATTLSLALEDYAQAADFATQAAAQAPGWALPLALLAQARRLADDPAGGKQAAQAALHLDPDEALAHFEVGLATALEAEQAPLWHRRRLLTEARAAASRVEALWPGQADGPALQALIDIVAGHWPQHEANIARALEREPDDSFAHNVRLLGLQARHSGETVPQLYERLRSRPDDVFARSQCVPTFPSRAGCGSIGGAGGGFFHCWW | failed
3 | MIHQIESVQAGKKIYFLSDFHLGVPSDEESWKREKKIIRFLDSITPAAQAVFLLGDIFDFWFEYKHVIPKGFARLQGKIAQLTDSGIPVYLYTGNHDLWMFGYLEKELGVTVFHKPIDWEIAGKKFLIGHGDGLGPGDFVYKCTKKVFVNPFFQWVFKMTPPAIGMGIAKFWSGKSRQHNTDDRFFEEKEFLWQYCKEQNVLKHRSYYIFGHRHMPLDLPVGDSARYVNIGDWIKFDTFAEFDGNELKLISWKETSEPYSL | failed
4 | MTGSVVVAGLGPGAQELITPEVSAALALATDIVGYAPYVARVAERDGLQRHASDNREELDRAGFALRLATEGRHVVIVSSGDPGVFAMAAALFEAIEAGDPSWRELDIRVLPGISAMFATAARIGAPLGHDFCAINLSDNLKPWETVEKRLRAAAEADFVIALYNPISKARPWQLGRAFELLRSIHPASVPVIFATAISDPRERIDVAPLGEAVPQRADMRTLVMIGSSQTRIIPRSSGADFVYTPRFSGAVS | failed
5 | MGSSHHHHHHSSGENLYFQGHMIYPYKGKTPQIAASAFIADYVTITGDVVIGEETSIWFNTVIRGDVAPTVIGNRVNIQDNSILHQSPNNPLIIEDGVTVGHQVILHSAIVRKNALIGMGSIILDRAEIGEGAFIGAGSLVPPGKKIPPNTLALGRPAKVVRELTEDDIREMERIRREYVEKGQYYKALQQQRTSCADKKELP | not failed
6 | MIIDEKRVQEIKNGETSLGIEFGSTRIKAVLIANDFSILASGSFEWETSLENGVWTYSIDEIWKGLQYSYQKLFAEVKEKYGVVLSKIGSIGFSAMMHGYMAFDNKGELLVPFRTWRNTMTEEAAKKLTDLFKFNIPERWSIAHLYQAILRNEPHVEKIDFLTTLAGYIHWQLTGEKVLGIGDASGMFPIDTQTHNYDKNMLETFKNLPEVKKHSLDLEKLLPKVLLAGENAGVLTLEGAKKLDVSGNLQPGIPLCPPEGDAGTGMVATNSVAPRTGNVSAGTSIFAMVVLEKPLNRVHPEIDIVTTPSGDLVAMVHANNGCSDLEAWVNIFQQFTEAINVDMRKDLLYMALYTQAFQGDPDCGGVLAYNYFAGENITGVSEGRPMVVRKAKSNFNLPNFMRAHLFTSLGALKIGMDILLKDEAVKLDKLLGHGGLFKTPIVGQAAVAGAVNAPVSVMETAGEGGAWGIALLASYLRSKENDSTLPEFLSKNVFAGYVAEEVQPDPKDVKGFEEFIERYKKGIAIEQAAVEHLILEHHHHHH | failed
7 | MSRSQLTILTNICLIEDLETQRVVMQYRAPENNRWSGYAFPGGHVENDEAFAESVIREIYEETGLTIQNPQLVGIKNWPLDTGGRYIVICYKATEFSGTLQSSEEGEVSWVQKDQIPNLNLAYDMLPLMEMMEAPDKSEFFYPRRTEDDWEKKIF | not failed
8 | MRTIAFALALLATPVAAELEAARDLMDAGRFDEAYAALWPAARSGNAEAEELIGVIYAMGLGRPRDDQRAFEWYLRAAMKGHPGAQSGVGWYYEVGRGLPAPDLMRAYMWYTLSAIGGDPDAAISLEEVAKKMTAEEINKAHVLVADYKVWMYPFR | failed
